In article PMC4383751 one finds stoichiometry N data, which are given here for one substance.

This assay deals with wild-type pyruvate kinase isoform M2 (PKM2^WT) (human) (UniProt P14618). Description: SEC; gel filtration on Superdex 200 10/300 GL, in the absence of FBP; low protein concentration (less than 0.2 mg/mL); similar protein concentrations and conditions for all proteins; oxalate added in a further run (Fig. S1F).

Sequence of wild-type pyruvate kinase isoform M2 (PKM2^WT), P14618 1-531 (enzyme; other documents disagree on this pair) (P14618 whole entry, canonical isoform): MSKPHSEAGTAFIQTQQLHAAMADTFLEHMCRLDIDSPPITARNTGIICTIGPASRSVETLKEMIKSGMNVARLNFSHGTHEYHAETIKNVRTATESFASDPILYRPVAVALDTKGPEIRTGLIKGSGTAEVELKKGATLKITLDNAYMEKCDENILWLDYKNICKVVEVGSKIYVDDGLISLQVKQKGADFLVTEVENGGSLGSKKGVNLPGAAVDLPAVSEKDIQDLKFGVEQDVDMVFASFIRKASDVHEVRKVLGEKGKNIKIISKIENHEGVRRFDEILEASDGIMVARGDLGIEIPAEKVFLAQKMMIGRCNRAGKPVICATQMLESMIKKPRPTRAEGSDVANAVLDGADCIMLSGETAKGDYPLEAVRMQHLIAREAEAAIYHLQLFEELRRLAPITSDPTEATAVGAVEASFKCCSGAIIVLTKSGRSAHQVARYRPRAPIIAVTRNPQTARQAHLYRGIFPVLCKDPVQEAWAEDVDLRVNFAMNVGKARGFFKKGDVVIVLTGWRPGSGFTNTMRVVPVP

As for “wild-type pyruvate kinase isoform M2 (PKM2^WT), P14618 1-531 (enzyme; other documents disagree on this pair)”, the stoichiometry N (commonly the number of molecules, sites or subunits per partner or assembly) worked out at 2.
